Results reported in patent US9682130B2 (priority 2015, dated 2017).
Several values for one entry are separate records, joined by “and”; a condition that tells them apart may be missing. Equal entries are not always repeated. Where two headings read alike, the source gives them in different places.

Columns and labels:
[1] = tested on: Human Adenovirus 5 (AD5 strain NYS #98-1836); experiment: microbe, parasite or virus in culture; assay type: cell-based; settings: Adenovirus 5, MA-104 cells
Experimental: (§1) To assess in vitro cytotoxicity, both a cytopathic effects of a virus (CPE) regression assay and a neutral red lysosomal uptake cell viability assay was performed essentially as described in, e.g., Repetto, et al., Neutral Red Uptake Assay for the Estimation of Cell Viability/Cytotoxicity, Nat. Protoc. 3: 1125-1131 (2008), the content of which is hereby incorporated by reference in its entirety. Ninety-six-well plates were seeded with MA-104 cells at 1×10^5 cells/mL and incubated overnight at 37° C. with 5% CO2. […] Each dilution was added to 5 wells of a 96-well plate with 80% to 100% confluent cells, and three wells of each dilution were then infected with one of the two test viruses. Two wells remained uninfected as controls for toxicity. Six wells per plate were set aside as uninfected, untreated cell controls, and six wells per plate were infected with no treatment as virus controls. […] Assay plates were incubated at 37° C. with 5% CO2. […] After CPE reduction assay was completed, a neutral red lysosomal uptake assay was conducted by filling each well with 0.011% (m/v) neutral red, a vital stain. The plates then were incubated for about 2 hours at 37° C. in the dark. The unincorporated neutral red solution was removed from the wells and the incorporated dye was then eluted by adding Sorensen's citrate-buffered ethanol. The plates were then read on a spectrophotometer at 540 nm to quantify the neutral red taken up by the healthy cells. The optical density of test wells was converted to percent of cell control and normalized to the virus controls.
The concentration of test compound required to inhibit CPE by 50% or reduce red uptake into cells by 50% (EC50) was calculated by regression analysis. The toxicity of the compound without virus present was similarly calculated using the uninfected wells treated with test compounds compared with untreated cell controls. The concentration of compound that would cause 50% cytotoxic effects in the absence of virus (CC50) was estimated by linear regression analysis. The selectivity index (SI) is the CC50 divided by EC50.

[2] = tested on: Human Adenovirus 8 (Ad8 strain 13306); experiment: Neutral red lysosomal uptake assay, Adenovirus 8; assay type: cell-based; settings: Adenovirus 8, MA-104 cells
Experimental: as §1, with “The unincorporated neutral red solution was removed from the wells and the incorporated dye was then eluted by adding Sorensen's citrate-buffered ethanol.” left out, “The optical density of test wells was converted to percent of cell control and normalized to the virus controls.” left out

A549 cells = experiment: In vitro cytotoxicity, ALAMARBLUE fluorometric stain; assay type: cell-based; settings: 2 days
Experimental: Ophthalmol. Vis. Sci. 50: 5295-5299 (2009), which is hereby incorporated by reference in its entirety.
To assess in vitro cytotoxicity, 96-well plates were seeded with A549 cells at 1×10^5 cells/mL and incubated overnight at 37° C. with 5% CO2. […] After removal of the tissue culture media, 100 μL of each dilution was added to 3 wells of a 96-well plate with 80% to 100% confluent cells. […] Each test and control treatment was incubated on the A549 monolayers for 2 days at 37° C. with 5% CO2. A 100 μL aliquot of the fluorometric stain was then added to each well, and the cells incubated for 1 hour at 37° C. with 5% CO2. The fluorometric stain (ALAMARBLUE®, Invitrogen, Carlsbad, Calif.) acts as a redox indicator that is reduced to a fluorescent form by metabolically active living cells. Fluorescence was then be read with a plate reader (Biotek Synergy 2; Biotek), with a 500/27-nm excitation filter and a 620/40-nm emission filter, at a sensitivity of 35.

[3] = Eye irritation, Draize scale (MMTS), Ad5/NZW rabbit ocular model; assay type: in vivo; settings: for Ocular irritation MMTS score, Day 3 / Ocular irritation MMTS score, Day 9 / Ocular irritation class, Day 3 / Ocular irritation class, Day 9: topical both eyes 8x daily
Experimental: To conduct this in vivo assay, 25 NZW rabbit were anesthetized using the general anesthesia ketamine and xylazine and the topical anesthesia proparacaine. Each rabbit was then topically inoculated with 50 μL of Adenovirus serotype Ad5 (3×10^7 pfu/mL) in both eyes after corneal epithelial scarification (12 cross-hatched strokes of a 25 sterile needle). Eyes were closed and gently rubbed for 5 seconds to ensure contact of the virus on all ocular surfaces. Inoculation of both eyes allowed for the reduction in the number of animals needed without jeopardizing statistical validity. […] All topical solutions (37 μL drops) were instilled with an electronic pipette (EDP; Rainin, Oakland, Calif.) set in the multi-dispense mode. Ocular swabbing to recover adenovirus from tear film and corneal and conjunctival surfaces, after topical anesthesia with proparacaine, was performed at least 1 hour after the final dose on days 0, 1, 3, 4, 5, 7, 9, 11, and 14 after inoculation. The ocular samples from each eye was placed individually into tubes containing 1 mL of medium and were frozen at −70° C. pending viral plaque assay.
The animals were assayed for eye irritation using a Draize scale for ocular lesions. Classification of eye irritation was evaluated for both eyes of each rabbit on day 3 and day 9 using the maximum mean total score (MMTS; Table 4). See, e.g., Kay and Calandra, Interpretation of Eye Irritation Tests, J. Soc. Cos. Chem. 13: 281-289 (1962), the content of which is hereby incorporated by reference in its entirety. The MMTS score used was as follows: 0.0-0.5, Non-Irritating (N); 0.6-2.5, Practically Non-Irritating (PN); 2.6-15.0, Minimally Irritating (M1); 15.1-25.0, Mildly Irritating (M2); 25.1-50.0, Moderately Irritating (M3); 50.1-80.0, Severely Irritating (S); 80.1-100.0, Extremely Irritating (E); and 100.1-110.0, Maximally Irritating (Mx).

MA-104 cells [4] = tested on: MA-104 cells
NFκB = settings: small in vitro study; cited from earlier work
HIV-1 = settings: final concentrations that are not cytotoxic; cited from earlier work
MA-104 cells [5] = experiment: Toxicity in uninfected wells (CC50); settings: for Yield Reduction Assay CC50: yield reduction columns

B1: Ranpirnase (protein, UniProt P22069 1-104, looked up)
Protein P-30: QDWLTFQKKHITNTRDVDCDNIMSTNLFHCKDKNTFIYSRPEPVKAICKGIIASKNVLTTSEFYLSDCNVTSRPCKYKLKKSTNKFCVTCENQAPVHFVGVGSC
notes: amphibian ribonuclease originally isolated from oocytes and/or early embryos of Rana pipiens; pancreatic ribonuclease (RNase A) superfamily, about 12 kD
- Neutral Red Assay EC50 [1]: <100 µg/mL
- Neutral Red Assay EC50 [2]: <100 µg/mL
- % cytotoxicity, Mean (A549 cells; 0.001 μM, second experiment): 3.2%
- % cytotoxicity (A549 cells; 0.001 μM, second experiment, single assays 1-3, 0.001 µM): 5.7% and 2.3% and 1.6%
- % cytotoxicity, Mean (A549 cells; 0.01 μM, second experiment): 7.4%
- % cytotoxicity (A549 cells; 0.01 μM, second experiment, single assays 1-3, 0.01 µM): 8.6% and 11.7% and 7.9%
- % cytotoxicity, Mean (A549 cells; 0.1 μM, second experiment): 5.8%
- % cytotoxicity (A549 cells; 0.1 μM, second experiment, single assays 1-3, 0.1 µM): 6.0% and 5.3% and 6.1%
- % cytotoxicity (A549 cells; 1.0 μM, first experiment, single assays 1-3, 1 µM): 60.9% and 61.3% and 63.7%
- % cytotoxicity (A549 cells; 1.0 μM, second experiment, single assays 1-3, 1 µM): 11.1% and 14.6% and 18.1%
- % cytotoxicity (A549 cells; 10 μM, first experiment, single assays 1-3, 10 µM): 65.7% and 66.5% and 67.1%
- % cytotoxicity (A549 cells; 10 μM, second experiment, single assays 1-3, 10 µM): 29.1% and 32.7% and 37.3%
- % cytotoxicity (A549 cells; 50 μM, first experiment, single assays 1-3, 50 µM): 75.1% and 74.0%
- % cytotoxicity (A549 cells; 50 μM, second experiment, single assays 1-3, 50 µM): 86.7% and 86.4%
- Eye irritation compared to saline and Cidofovir controls ([3]; 0.25 μM Ranpirnase): no eye irritation as compared to both the saline and Cidofovir controls
- Ocular irritation MMTS score, Day 3 ([3]; 0.25 μM Ranpirnase (group 1C)): 7.5
- Ocular irritation MMTS score, Day 9 ([3]; 0.25 μM Ranpirnase (group 1C)): 22.5
- Ocular irritation class, Day 3 ([3]; 0.25 μM Ranpirnase (group 1C)): M1 (2.6-15.0, Minimally Irritating (M1))
- Ocular irritation class, Day 9 ([3]; 0.25 μM Ranpirnase (group 1C)): M2 (15.1-25.0, Mildly Irritating (M2))
- Ocular irritation MMTS score, Day 3 ([3]; 2.5 μM Ranpirnase (group 1B)): 14.6
- Ocular irritation MMTS score, Day 9 ([3]; 2.5 μM Ranpirnase (group 1B)): 60.7
- Ocular irritation class, Day 3 ([3]; 2.5 μM Ranpirnase (group 1B)): M1 (2.6-15.0, Minimally Irritating (M1))
- Ocular irritation class, Day 9 ([3]; 2.5 μM Ranpirnase (group 1B)): S (50.1-80.0, Severely Irritating (S))
- Ocular irritation MMTS score, Day 3 ([3]; 25 μM Ranpirnase (group 1A)): 22.0
- Ocular irritation MMTS score, Day 9 ([3]; 25 μM Ranpirnase (group 1A)): 85.0
- Ocular irritation class, Day 3 ([3]; 25 μM Ranpirnase (group 1A)): M2 (15.1-25.0, Mildly Irritating (M2))
- Ocular irritation class, Day 9 ([3]; 25 μM Ranpirnase (group 1A)): E (80.1-100.0, Extremely Irritating (E))
- Ocular toxicity compared to Saline and CDV controls ([3]; 25, 2.5 and 0.25 μM Ranpirnase, Ad5/NZW rabbit ocular model): dose dependent ocular toxicity
- CPE Reduction Assay CC50 (MA-104 cells [4]): 75 µg/mL
- Translocation of NFκB into the nucleus (NFκB): inhibits translocation of NFκB into the nucleus
- Inhibition of replication of HIV-1 (HIV-1): up to 99.9%
- Neutral Red Assay CC50 (MA-104 cells [5]; Adenovirus 5 section): 52 µg/mL
- Yield Reduction Assay CC50 (MA-104 cells [5]; Adenovirus 5 section): 52 µg/mL
- CPE Reduction Assay CC50 (MA-104 cells [5]; Adenovirus 8 section, CPE scoring): 59 µg/mL
- Neutral Red Assay CC50 (MA-104 cells [5]; Adenovirus 8 section): 44 µg/mL
- Yield Reduction Assay CC50 (MA-104 cells [5]; Adenovirus 8 section): 59 µg/mL
